Results as given in PMC6650547 (2019).

Target: T1, His-SUDV-NP(34-367) (Sudan virus (SUDV), strain Boniface, UniProt Q9QP77 34-367)
T1 chain: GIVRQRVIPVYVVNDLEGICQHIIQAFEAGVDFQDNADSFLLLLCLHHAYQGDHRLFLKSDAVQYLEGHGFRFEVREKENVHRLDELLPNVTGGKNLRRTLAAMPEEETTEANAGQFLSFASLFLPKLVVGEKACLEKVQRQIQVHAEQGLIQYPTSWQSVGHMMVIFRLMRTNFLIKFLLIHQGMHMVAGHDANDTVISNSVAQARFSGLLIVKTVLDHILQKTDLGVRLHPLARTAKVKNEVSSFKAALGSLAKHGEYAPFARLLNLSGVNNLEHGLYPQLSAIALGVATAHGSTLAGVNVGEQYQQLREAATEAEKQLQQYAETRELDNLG
Assay: BLI

MQQDRTYRHHGPEVSGWFSEQLMTGKIPLTEVFV [SUDV VP35 wild-type chaperone domain peptide (residues 1 to 34)]
koff: 0.00583 s⁻¹
